Data reported in the supplement of paper PMC10567573.

B1: INTS4 (parent)
chain: IRLVDDAFGKICHMVSDGSWVVRV

Variants of: B1
Assay: protein stability index of a GFP-peptide fusion (GPS, HEK-293T) (PSI 1-6); higher = more stable
Conditions: c terminus: a fixed tail appended
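Also: lentivirally expressed fusions sorted by FACS into six bins by GFP to DsRed ratio, PSI derived from sequencing read proportions per bin multiplied by bin number.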

For IRLVDDAFGKICHMASDGSWVVRV [V15A], which protein stability index is on record?
Its protein stability index is 3.99.

Which protein stability index does the source give for IRLVDDAFGKICHMCSDGSWVVRV [V15C] here?
The protein stability index was 4.47.

With IRLVDDAFGKICHMDSDGSWVVRV [V15D] as the variant, how does the protein stability index read?
Its protein stability index is 2.06.

With IRLVDDAFGKICHMFSDGSWVVRV [V15F] as the variant, how does the protein stability index read?
The protein stability index was 2.51.

For IRLVDDAFGKICHMGSDGSWVVRV [V15G], which protein stability index is on record?
The protein stability index was 3.51.

With IRLVDDAFGKICHMHSDGSWVVRV [V15H] as the variant, how does the protein stability index read?
The protein stability index was 2.22.

Which protein stability index does the source give for IRLVDDAFGKICHMISDGSWVVRV [V15I] here?
Its protein stability index is 2.87.

For IRLVDDAFGKICHMKSDGSWVVRV [V15K], which protein stability index is on record?
Its protein stability index is 2.06.

For IRLVDDAFGKICHMLSDGSWVVRV [V15L], which protein stability index is on record?
Its protein stability index is 2.74.

With IRLVDDAFGKICHMNSDGSWVVRV [V15N] as the variant, how does the protein stability index read?
Its protein stability index is 3.28.

With IRLVDDAFGKICHMPSDGSWVVRV [V15P] as the variant, how does the protein stability index read?
Its protein stability index is 3.17.

Which protein stability index does the source give for IRLVDDAFGKICHMQSDGSWVVRV [V15Q] here?
Its protein stability index is 3.06.

Which protein stability index does the source give for IRLVDDAFGKICHMRSDGSWVVRV [V15R] here?
Its protein stability index is 3.53.

Which protein stability index does the source give for IRLVDDAFGKICHMSSDGSWVVRV [V15S] here?
Its protein stability index is 1.84.

For IRLVDDAFGKICHMTSDGSWVVRV [V15T], which protein stability index is on record?
Its protein stability index is 3.2.

With IRLVDDAFGKICHMVCDGSWVVRV [S16C] as the variant, how does the protein stability index read?
Its protein stability index is 2.56.

Which protein stability index does the source give for IRLVDDAFGKICHMVDDGSWVVRV [S16D] here?
The protein stability index was 1.29.

For IRLVDDAFGKICHMVEDGSWVVRV [S16E], which protein stability index is on record?
The protein stability index was 2.31.

For IRLVDDAFGKICHMVFDGSWVVRV [S16F], which protein stability index is on record?
Its protein stability index is 2.14.

Which protein stability index does the source give for IRLVDDAFGKICHMVIDGSWVVRV [S16I] here?
Its protein stability index is 2.59.

With IRLVDDAFGKICHMVLDGSWVVRV [S16L] as the variant, how does the protein stability index read?
The protein stability index was 3.17.

With IRLVDDAFGKICHMVMDGSWVVRV [S16M] as the variant, how does the protein stability index read?
Its protein stability index is 2.25.

Which protein stability index does the source give for IRLVDDAFGKICHMVNDGSWVVRV [S16N] here?
The protein stability index was 2.52.

With IRLVDDAFGKICHMVQDGSWVVRV [S16Q] as the variant, how does the protein stability index read?
The protein stability index was 2.47.

Which protein stability index does the source give for IRLVDDAFGKICHMVRDGSWVVRV [S16R] here?
The protein stability index was 2.56.

With IRLVDDAFGKICHMVVDGSWVVRV [S16V] as the variant, how does the protein stability index read?
Its protein stability index is 1.29.

With IRLVDDAFGKICHMVWDGSWVVRV [S16W] as the variant, how does the protein stability index read?
The protein stability index was 1.91.

With IRLVDDAFGKICHMVSAGSWVVRV [D17A] as the variant, how does the protein stability index read?
Its protein stability index is 3.62.

With IRLVDDAFGKICHMVSCGSWVVRV [D17C] as the variant, how does the protein stability index read?
The protein stability index was 2.15.

Which protein stability index does the source give for IRLVDDAFGKICHMVSEGSWVVRV [D17E] here?
The protein stability index was 2.35.

For IRLVDDAFGKICHMVSFGSWVVRV [D17F], which protein stability index is on record?
Its protein stability index is 1.24.

Which protein stability index does the source give for IRLVDDAFGKICHMVSGGSWVVRV [D17G] here?
The protein stability index was 2.05.

With IRLVDDAFGKICHMVSHGSWVVRV [D17H] as the variant, how does the protein stability index read?
The protein stability index was 3.91.

With IRLVDDAFGKICHMVSKGSWVVRV [D17K] as the variant, how does the protein stability index read?
Its protein stability index is 1.48.

For IRLVDDAFGKICHMVSLGSWVVRV [D17L], which protein stability index is on record?
The protein stability index was 2.79.

Which protein stability index does the source give for IRLVDDAFGKICHMVSMGSWVVRV [D17M] here?
Its protein stability index is 1.92.

For IRLVDDAFGKICHMVSNGSWVVRV [D17N], which protein stability index is on record?
Its protein stability index is 2.41.

With IRLVDDAFGKICHMVSPGSWVVRV [D17P] as the variant, how does the protein stability index read?
The protein stability index was 2.05.

Which protein stability index does the source give for IRLVDDAFGKICHMVSQGSWVVRV [D17Q] here?
Its protein stability index is 3.32.

Which protein stability index does the source give for IRLVDDAFGKICHMVSRGSWVVRV [D17R] here?
Its protein stability index is 2.02.

With IRLVDDAFGKICHMVSSGSWVVRV [D17S] as the variant, how does the protein stability index read?
Its protein stability index is 3.98.

Which protein stability index does the source give for IRLVDDAFGKICHMVSVGSWVVRV [D17V] here?
Its protein stability index is 3.15.

With IRLVDDAFGKICHMVSWGSWVVRV [D17W] as the variant, how does the protein stability index read?
The protein stability index was 2.22.

Which protein stability index does the source give for IRLVDDAFGKICHMVSDDSWVVRV [G18D] here?
The protein stability index was 3.61.

With IRLVDDAFGKICHMVSDESWVVRV [G18E] as the variant, how does the protein stability index read?
Its protein stability index is 2.57.

For IRLVDDAFGKICHMVSDFSWVVRV [G18F], which protein stability index is on record?
Its protein stability index is 2.29.

Which protein stability index does the source give for IRLVDDAFGKICHMVSDISWVVRV [G18I] here?
The protein stability index was 3.15.

With IRLVDDAFGKICHMVSDKSWVVRV [G18K] as the variant, how does the protein stability index read?
Its protein stability index is 3.25.

For IRLVDDAFGKICHMVSDMSWVVRV [G18M], which protein stability index is on record?
Its protein stability index is 1.8.

Which protein stability index does the source give for IRLVDDAFGKICHMVSDNSWVVRV [G18N] here?
Its protein stability index is 2.01.

For IRLVDDAFGKICHMVSDPSWVVRV [G18P], which protein stability index is on record?
The protein stability index was 4.4.

Which protein stability index does the source give for IRLVDDAFGKICHMVSDRSWVVRV [G18R] here?
The protein stability index was 2.9.

With IRLVDDAFGKICHMVSDSSWVVRV [G18S] as the variant, how does the protein stability index read?
Its protein stability index is 1.88.

With IRLVDDAFGKICHMVSDTSWVVRV [G18T] as the variant, how does the protein stability index read?
The protein stability index was 1.95.

Which protein stability index does the source give for IRLVDDAFGKICHMVSDYSWVVRV [G18Y] here?
Its protein stability index is 1.62.

With IRLVDDAFGKICHMVSDGAWVVRV [S19A] as the variant, how does the protein stability index read?
Its protein stability index is 2.89.

For IRLVDDAFGKICHMVSDGCWVVRV [S19C], which protein stability index is on record?
The protein stability index was 1.73.

For IRLVDDAFGKICHMVSDGDWVVRV [S19D], which protein stability index is on record?
The protein stability index was 3.41.

For IRLVDDAFGKICHMVSDGFWVVRV [S19F], which protein stability index is on record?
The protein stability index was 2.73.

Which protein stability index does the source give for IRLVDDAFGKICHMVSDGGWVVRV [S19G] here?
Its protein stability index is 1.58.

Which protein stability index does the source give for IRLVDDAFGKICHMVSDGHWVVRV [S19H] here?
The protein stability index was 3.8.

With IRLVDDAFGKICHMVSDGIWVVRV [S19I] as the variant, how does the protein stability index read?
Its protein stability index is 3.87.

Which protein stability index does the source give for IRLVDDAFGKICHMVSDGKWVVRV [S19K] here?
Its protein stability index is 2.25.

Which protein stability index does the source give for IRLVDDAFGKICHMVSDGLWVVRV [S19L] here?
Its protein stability index is 2.95.

Which protein stability index does the source give for IRLVDDAFGKICHMVSDGMWVVRV [S19M] here?
Its protein stability index is 2.38.

For IRLVDDAFGKICHMVSDGPWVVRV [S19P], which protein stability index is on record?
Its protein stability index is 3.43.

With IRLVDDAFGKICHMVSDGQWVVRV [S19Q] as the variant, how does the protein stability index read?
Its protein stability index is 3.45.

With IRLVDDAFGKICHMVSDGTWVVRV [S19T] as the variant, how does the protein stability index read?
The protein stability index was 3.28.

Which protein stability index does the source give for IRLVDDAFGKICHMVSDGVWVVRV [S19V] here?
The protein stability index was 3.96.

With IRLVDDAFGKICHMVSDGWWVVRV [S19W] as the variant, how does the protein stability index read?
Its protein stability index is 1.01.

With IRLVDDAFGKICHMVSDGSAVVRV [W20A] as the variant, how does the protein stability index read?
The protein stability index was 3.43.

Which protein stability index does the source give for IRLVDDAFGKICHMVSDGSDVVRV [W20D] here?
Its protein stability index is 1.61.

Which protein stability index does the source give for IRLVDDAFGKICHMVSDGSEVVRV [W20E] here?
The protein stability index was 1.64.

For IRLVDDAFGKICHMVSDGSFVVRV [W20F], which protein stability index is on record?
The protein stability index was 2.47.

With IRLVDDAFGKICHMVSDGSGVVRV [W20G] as the variant, how does the protein stability index read?
Its protein stability index is 1.7.

With IRLVDDAFGKICHMVSDGSHVVRV [W20H] as the variant, how does the protein stability index read?
Its protein stability index is 3.71.

For IRLVDDAFGKICHMVSDGSIVVRV [W20I], which protein stability index is on record?
Its protein stability index is 2.89.

With IRLVDDAFGKICHMVSDGSKVVRV [W20K] as the variant, how does the protein stability index read?
The protein stability index was 1.36.

With IRLVDDAFGKICHMVSDGSLVVRV [W20L] as the variant, how does the protein stability index read?
Its protein stability index is 2.83.

For IRLVDDAFGKICHMVSDGSQVVRV [W20Q], which protein stability index is on record?
Its protein stability index is 3.26.

Which protein stability index does the source give for IRLVDDAFGKICHMVSDGSRVVRV [W20R] here?
Its protein stability index is 2.79.

For IRLVDDAFGKICHMVSDGSVVVRV [W20V], which protein stability index is on record?
Its protein stability index is 3.08.

Which protein stability index does the source give for IRLVDDAFGKICHMVSDGSYVVRV [W20Y] here?
Its protein stability index is 2.87.

With IRLVDDAFGKICHMVSDGSWCVRV [V21C] as the variant, how does the protein stability index read?
The protein stability index was 3.07.

With IRLVDDAFGKICHMVSDGSWEVRV [V21E] as the variant, how does the protein stability index read?
The protein stability index was 2.

For IRLVDDAFGKICHMVSDGSWFVRV [V21F], which protein stability index is on record?
Its protein stability index is 2.62.

Which protein stability index does the source give for IRLVDDAFGKICHMVSDGSWGVRV [V21G] here?
The protein stability index was 1.89.

With IRLVDDAFGKICHMVSDGSWHVRV [V21H] as the variant, how does the protein stability index read?
The protein stability index was 3.08.

With IRLVDDAFGKICHMVSDGSWKVRV [V21K] as the variant, how does the protein stability index read?
Its protein stability index is 3.29.

Which protein stability index does the source give for IRLVDDAFGKICHMVSDGSWLVRV [V21L] here?
Its protein stability index is 2.25.

For IRLVDDAFGKICHMVSDGSWPVRV [V21P], which protein stability index is on record?
The protein stability index was 1.98.

For IRLVDDAFGKICHMVSDGSWRVRV [V21R], which protein stability index is on record?
Its protein stability index is 2.88.

Which protein stability index does the source give for IRLVDDAFGKICHMVSDGSWTVRV [V21T] here?
Its protein stability index is 2.18.

With IRLVDDAFGKICHMVSDGSWYVRV [V21Y] as the variant, how does the protein stability index read?
Its protein stability index is 4.71.
